Assay results reported in patent publication EP3350599B1.

Legend:
[1] = target: purified bone alkaline phosphatase from calf intestinal mucosa (AP; Santa Cruz sc-3716 - CAS9001-78-9) (calf) (UniProt P19111); assay: capture ELISA, coated antibody, AP calibrator at 25 ng/ml, bound enzyme read with pNPP
[2] = target: purified bone alkaline phosphatase from calf intestinal mucosa (AP; Santa Cruz sc-3716 - CAS9001-78-9) (calf) (UniProt P19111); assay: capture ELISA, coated antibody, AP calibrator at 6.25 ng/ml, bound enzyme read with pNPP
[3] = target: purified bone alkaline phosphatase from calf intestinal mucosa (AP; Santa Cruz sc-3716 - CAS9001-78-9) (calf) (UniProt P19111); assay: capture ELISA, coated antibody, AP calibrator at 3.125 ng/ml, bound enzyme read with pNPP
[4] = target: purified bone alkaline phosphatase from calf intestinal mucosa (AP; Santa Cruz sc-3716 - CAS9001-78-9) (calf) (UniProt P19111); assay: capture ELISA, coated antibody, AP calibrator at 50 ng/ml, bound enzyme read with pNPP
[5] = target: purified bone alkaline phosphatase from calf intestinal mucosa (AP; Santa Cruz sc-3716 - CAS9001-78-9) (calf) (UniProt P19111); assay: capture ELISA, coated antibody, AP calibrator at 100 ng/ml, bound enzyme read with pNPP
[6] = target: purified bone alkaline phosphatase from calf intestinal mucosa (AP; Santa Cruz sc-3716 - CAS9001-78-9) (calf) (UniProt P19111); assay: capture ELISA, coated antibody, AP calibrator at 12.5 ng/ml, bound enzyme read with pNPP

UniProt P19111, sequence (P19111 20-506): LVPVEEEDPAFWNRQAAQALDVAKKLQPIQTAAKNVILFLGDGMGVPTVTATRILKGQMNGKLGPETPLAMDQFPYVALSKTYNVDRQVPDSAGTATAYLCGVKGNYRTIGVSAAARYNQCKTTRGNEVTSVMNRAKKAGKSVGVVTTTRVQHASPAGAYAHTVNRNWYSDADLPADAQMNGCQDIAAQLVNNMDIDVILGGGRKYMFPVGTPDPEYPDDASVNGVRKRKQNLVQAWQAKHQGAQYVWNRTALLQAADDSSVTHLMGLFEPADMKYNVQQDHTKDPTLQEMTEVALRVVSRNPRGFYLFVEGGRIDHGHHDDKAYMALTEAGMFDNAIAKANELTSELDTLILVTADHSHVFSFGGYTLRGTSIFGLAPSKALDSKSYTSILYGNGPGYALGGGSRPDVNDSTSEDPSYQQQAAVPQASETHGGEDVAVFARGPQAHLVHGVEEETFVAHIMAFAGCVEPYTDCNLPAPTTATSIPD

“anti-BAP polyclonal IgG antibody (produced in sheep) specific for bone alkaline phosphatase (Abcam Ab68716)” was tested, and the Abs. 415 nm, Abs. (1) [1] was 0.345 Abs. 415 nm, the Abs. 415 nm, Abs. (2) [1] was 0.272 Abs. 415 nm and the Abs. 415 nm, Abs. (3) [1] was 0.294 Abs. 415 nm. The Mean Abs. 415 nm [1] was 0.304 Abs. 415 nm, the Abs. 415 nm, Abs. (1) [2] was 0.11 Abs. 415 nm and the Abs. 415 nm, Abs. (2) [2] was 0.098 Abs. 415 nm. It also gave an Abs. 415 nm, Abs. (3) [2] of 0.089 Abs. 415 nm, a Mean Abs. 415 nm [2] of 0.099 Abs. 415 nm and an Abs. 415 nm, Abs. (1) [3] of 0.054 Abs. 415 nm. It also gave an Abs. 415 nm, Abs. (2) [3] of 0.05 Abs. 415 nm, an Abs. 415 nm, Abs. (3) [3] of 0.066 Abs. 415 nm and a Mean Abs. 415 nm [3] of 0.057 Abs. 415 nm. For the same substance, the Abs. 415 nm, Abs. (1) [4] was 0.628 Abs. 415 nm, the Abs. 415 nm, Abs. (2) [4] was 0.501 Abs. 415 nm and the Abs. 415 nm, Abs. (3) [4] was 0.476 Abs. 415 nm. It also gave a Mean Abs. 415 nm [4] of 0.535 Abs. 415 nm, an Abs. 415 nm, Abs. (1) [5] of 1.09 Abs. 415 nm and an Abs. 415 nm, Abs. (2) [5] of 1.03 Abs. 415 nm. The Abs. 415 nm, Abs. (3) [5] was 1.12 Abs. 415 nm, the Mean Abs. 415 nm [5] was 1.08 Abs. 415 nm and the Abs. 415 nm, Abs. (1) [6] was 0.186 Abs. 415 nm. It also gave an Abs. 415 nm, Abs. (2) [6] of 0.156 Abs. 415 nm, an Abs. 415 nm, Abs. (3) [6] of 0.161 Abs. 415 nm and a Mean Abs. 415 nm [6] of 0.168 Abs. 415 nm.
